How the values were obtained:
Test in all cases: SPR (Biacore);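 further: antibody variants captured on sensor chip, Fcγ receptor flowed over at 25 °C, bound receptor normalized to amount of captured antibody, expressed relative to reference antibody set as 100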
human FcγRIIb = target: T1, human FcγRIIb (human, UniProt P31994 43-217, limits assumed)
T1 construct: also called FcgRIIb
T1 sequence: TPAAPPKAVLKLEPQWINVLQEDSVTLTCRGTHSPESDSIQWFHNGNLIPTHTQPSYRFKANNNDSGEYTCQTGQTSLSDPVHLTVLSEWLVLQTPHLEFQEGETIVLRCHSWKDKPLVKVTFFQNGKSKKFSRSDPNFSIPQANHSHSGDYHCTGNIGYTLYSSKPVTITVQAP

human FcγRIIIa(F) = target: T2, human FcγRIIIa(F) (human, UniProt P08637 17-208, limits assumed)
T2 construct: also called FcgRIIIaF; allotype F158

human FcγRIIa(R) = target: T3, human FcγRIIa(R) (human, UniProt P12318 36-217)
T3 construct: also called FcgRIIaR; FcγRIIa type R
T3 chain: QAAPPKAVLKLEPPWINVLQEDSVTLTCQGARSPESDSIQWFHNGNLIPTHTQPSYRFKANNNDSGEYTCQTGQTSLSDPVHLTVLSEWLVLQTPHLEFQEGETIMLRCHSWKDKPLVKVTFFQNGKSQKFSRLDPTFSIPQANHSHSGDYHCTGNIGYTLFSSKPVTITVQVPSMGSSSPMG

human FcγRIa = target: T4, human FcγRIa (human, UniProt P12314 16-292, limits assumed)
T4 construct: also called FcgRIa; FcγRI (CD64)

human FcγRIIa(H) = target: T5, human FcγRIIa(H) (human, UniProt P12318 36-217)
T5 construct: also called FcgRIIaH; FcγRIIa type H
T5 sequence: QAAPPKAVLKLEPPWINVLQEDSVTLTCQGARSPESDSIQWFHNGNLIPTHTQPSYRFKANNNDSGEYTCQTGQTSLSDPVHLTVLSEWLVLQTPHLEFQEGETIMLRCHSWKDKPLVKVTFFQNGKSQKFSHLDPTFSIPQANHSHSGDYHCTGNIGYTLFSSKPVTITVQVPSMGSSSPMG

T4 sequence (P12314 16-292 limits assumed): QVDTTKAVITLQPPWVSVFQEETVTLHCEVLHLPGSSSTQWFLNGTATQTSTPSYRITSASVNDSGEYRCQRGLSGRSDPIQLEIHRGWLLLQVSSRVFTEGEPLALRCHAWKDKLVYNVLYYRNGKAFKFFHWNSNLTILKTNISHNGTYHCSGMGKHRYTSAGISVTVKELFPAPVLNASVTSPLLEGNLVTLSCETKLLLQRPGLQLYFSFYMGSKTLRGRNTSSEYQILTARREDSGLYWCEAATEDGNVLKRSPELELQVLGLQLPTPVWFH
T2 sequence (P08637 other isoform, or with tags, fused parts or gaps limits assumed): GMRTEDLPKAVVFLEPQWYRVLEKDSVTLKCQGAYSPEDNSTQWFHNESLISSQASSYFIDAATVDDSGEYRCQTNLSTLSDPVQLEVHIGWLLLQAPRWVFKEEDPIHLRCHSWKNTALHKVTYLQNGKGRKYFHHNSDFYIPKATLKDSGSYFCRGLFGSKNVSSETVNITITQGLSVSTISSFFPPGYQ

B1: GpH7-B3 variant L235Q/GpL16-k0 (antibody, human IgG1)
heavy: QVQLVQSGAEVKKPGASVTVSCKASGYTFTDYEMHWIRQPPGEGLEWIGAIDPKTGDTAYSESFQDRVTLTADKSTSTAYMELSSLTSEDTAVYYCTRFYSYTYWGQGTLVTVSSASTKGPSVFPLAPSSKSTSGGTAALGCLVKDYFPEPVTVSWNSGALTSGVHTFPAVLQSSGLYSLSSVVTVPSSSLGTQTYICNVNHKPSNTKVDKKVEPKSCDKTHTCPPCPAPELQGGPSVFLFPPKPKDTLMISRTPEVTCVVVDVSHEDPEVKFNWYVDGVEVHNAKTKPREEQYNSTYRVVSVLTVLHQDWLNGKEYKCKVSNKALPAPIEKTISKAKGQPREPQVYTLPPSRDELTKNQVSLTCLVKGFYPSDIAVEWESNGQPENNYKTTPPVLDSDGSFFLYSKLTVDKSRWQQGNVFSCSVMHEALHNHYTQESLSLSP
light: DIVMTQSPLSLPVTPGEPASISCQASESLVHSNRNTYLHWYLQKPGQSPQLLIYKVSNRFSGVPDRFSGSGSGTDFTLKISRVEAEDVGVYYCSQNTHVPPTFGQGTKVEIE
notes: copies: 2 + 2
- relative binding activity (human FcγRIIb): 20 % of GpH7-B3/GpL16-k0
- relative binding activity (human FcγRIIIa(F)): 35 % of GpH7-B3/GpL16-k0
- relative binding activity (human FcγRIIa(R)): 28 % of GpH7-B3/GpL16-k0
- relative binding activity (human FcγRIa): 29 % of GpH7-B3/GpL16-k0
- relative binding activity (human FcγRIIa(H)): 34 % of GpH7-B3/GpL16-k0

B2: GpH7-B3 variant L235R/GpL16-k0 (antibody, human IgG1)
heavy: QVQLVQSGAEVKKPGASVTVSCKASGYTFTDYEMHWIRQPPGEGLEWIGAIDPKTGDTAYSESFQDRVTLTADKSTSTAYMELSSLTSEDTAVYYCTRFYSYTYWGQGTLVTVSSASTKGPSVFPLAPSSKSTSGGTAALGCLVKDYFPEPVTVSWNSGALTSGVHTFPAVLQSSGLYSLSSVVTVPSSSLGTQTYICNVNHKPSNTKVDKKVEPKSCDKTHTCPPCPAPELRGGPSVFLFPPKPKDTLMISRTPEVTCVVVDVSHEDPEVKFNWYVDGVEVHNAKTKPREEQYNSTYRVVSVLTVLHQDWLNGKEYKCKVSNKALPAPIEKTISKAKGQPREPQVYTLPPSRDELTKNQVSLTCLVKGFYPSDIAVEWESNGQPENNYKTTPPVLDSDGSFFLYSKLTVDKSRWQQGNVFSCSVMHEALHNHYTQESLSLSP
light: DIVMTQSPLSLPVTPGEPASISCQASESLVHSNRNTYLHWYLQKPGQSPQLLIYKVSNRFSGVPDRFSGSGSGTDFTLKISRVEAEDVGVYYCSQNTHVPPTFGQGTKVEIE
notes: copies: 2 + 2
- relative binding activity (human FcγRIIb): -2 % of GpH7-B3/GpL16-k0
- relative binding activity (human FcγRIIIa(F)): 9 % of GpH7-B3/GpL16-k0
- relative binding activity (human FcγRIIa(R)): -4 % of GpH7-B3/GpL16-k0
- relative binding activity (human FcγRIa): 0 % of GpH7-B3/GpL16-k0
- relative binding activity (human FcγRIIa(H)): 1 % of GpH7-B3/GpL16-k0

B3: GpH7-B3 variant L235S/GpL16-k0 (antibody, human IgG1)
heavy: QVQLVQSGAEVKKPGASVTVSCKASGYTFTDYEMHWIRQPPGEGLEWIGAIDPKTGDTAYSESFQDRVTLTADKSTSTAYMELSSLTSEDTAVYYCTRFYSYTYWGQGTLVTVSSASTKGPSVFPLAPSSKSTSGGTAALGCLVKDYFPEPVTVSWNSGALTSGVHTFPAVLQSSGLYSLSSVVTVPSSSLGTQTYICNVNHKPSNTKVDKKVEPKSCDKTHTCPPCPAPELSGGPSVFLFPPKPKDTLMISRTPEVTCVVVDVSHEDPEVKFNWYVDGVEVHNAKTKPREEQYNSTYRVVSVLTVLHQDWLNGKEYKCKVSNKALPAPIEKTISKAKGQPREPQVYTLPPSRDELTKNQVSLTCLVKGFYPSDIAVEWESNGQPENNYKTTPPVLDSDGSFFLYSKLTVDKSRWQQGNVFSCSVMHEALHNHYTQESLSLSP
light: DIVMTQSPLSLPVTPGEPASISCQASESLVHSNRNTYLHWYLQKPGQSPQLLIYKVSNRFSGVPDRFSGSGSGTDFTLKISRVEAEDVGVYYCSQNTHVPPTFGQGTKVEIE
notes: copies: 2 + 2
- relative binding activity (human FcγRIIb): 23 % of GpH7-B3/GpL16-k0
- relative binding activity (human FcγRIIIa(F)): 36 % of GpH7-B3/GpL16-k0
- relative binding activity (human FcγRIIa(R)): 29 % of GpH7-B3/GpL16-k0
- relative binding activity (human FcγRIa): 11 % of GpH7-B3/GpL16-k0
- relative binding activity (human FcγRIIa(H)): 39 % of GpH7-B3/GpL16-k0

B4: GpH7-B3 variant L235T/GpL16-k0 (antibody, human IgG1)
heavy: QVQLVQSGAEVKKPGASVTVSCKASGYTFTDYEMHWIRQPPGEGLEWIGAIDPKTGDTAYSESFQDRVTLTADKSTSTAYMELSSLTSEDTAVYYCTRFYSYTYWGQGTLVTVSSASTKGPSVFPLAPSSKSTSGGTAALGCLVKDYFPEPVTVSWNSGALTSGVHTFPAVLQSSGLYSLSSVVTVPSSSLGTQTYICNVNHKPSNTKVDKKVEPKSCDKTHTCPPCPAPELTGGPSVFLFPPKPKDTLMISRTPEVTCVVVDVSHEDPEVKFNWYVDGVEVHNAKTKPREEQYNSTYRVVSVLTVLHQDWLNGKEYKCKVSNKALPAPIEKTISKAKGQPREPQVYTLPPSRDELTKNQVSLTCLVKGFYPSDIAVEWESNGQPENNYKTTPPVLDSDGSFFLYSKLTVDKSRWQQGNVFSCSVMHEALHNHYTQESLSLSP
light: DIVMTQSPLSLPVTPGEPASISCQASESLVHSNRNTYLHWYLQKPGQSPQLLIYKVSNRFSGVPDRFSGSGSGTDFTLKISRVEAEDVGVYYCSQNTHVPPTFGQGTKVEIE
notes: copies: 2 + 2
- relative binding activity (human FcγRIIb): 26 % of GpH7-B3/GpL16-k0
- relative binding activity (human FcγRIIIa(F)): 48 % of GpH7-B3/GpL16-k0
- relative binding activity (human FcγRIIa(R)): 28 % of GpH7-B3/GpL16-k0
- relative binding activity (human FcγRIa): 8 % of GpH7-B3/GpL16-k0
- relative binding activity (human FcγRIIa(H)): 47 % of GpH7-B3/GpL16-k0

B5: GpH7-B3 variant L235V/GpL16-k0 (antibody, human IgG1)
heavy: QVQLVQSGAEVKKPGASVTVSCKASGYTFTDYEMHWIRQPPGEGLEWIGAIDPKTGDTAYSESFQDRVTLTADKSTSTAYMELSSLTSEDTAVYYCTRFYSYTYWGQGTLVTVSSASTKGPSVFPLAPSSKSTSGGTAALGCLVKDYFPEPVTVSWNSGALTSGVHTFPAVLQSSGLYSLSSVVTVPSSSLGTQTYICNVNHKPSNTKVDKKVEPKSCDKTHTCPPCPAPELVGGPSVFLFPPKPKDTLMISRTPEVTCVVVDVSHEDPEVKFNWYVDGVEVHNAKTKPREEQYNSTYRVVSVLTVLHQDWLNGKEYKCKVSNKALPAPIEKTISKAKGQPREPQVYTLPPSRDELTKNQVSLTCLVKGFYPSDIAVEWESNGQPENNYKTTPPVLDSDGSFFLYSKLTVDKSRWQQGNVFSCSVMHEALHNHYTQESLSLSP
light: DIVMTQSPLSLPVTPGEPASISCQASESLVHSNRNTYLHWYLQKPGQSPQLLIYKVSNRFSGVPDRFSGSGSGTDFTLKISRVEAEDVGVYYCSQNTHVPPTFGQGTKVEIE
notes: copies: 2 + 2
- relative binding activity (human FcγRIIb): 47 % of GpH7-B3/GpL16-k0
- relative binding activity (human FcγRIIIa(F)): 77 % of GpH7-B3/GpL16-k0
- relative binding activity (human FcγRIIa(R)): 50 % of GpH7-B3/GpL16-k0
- relative binding activity (human FcγRIa): 69 % of GpH7-B3/GpL16-k0
- relative binding activity (human FcγRIIa(H)): 68 % of GpH7-B3/GpL16-k0

B6: GpH7-B3 variant P238A/GpL16-k0 (antibody, human IgG1)
heavy: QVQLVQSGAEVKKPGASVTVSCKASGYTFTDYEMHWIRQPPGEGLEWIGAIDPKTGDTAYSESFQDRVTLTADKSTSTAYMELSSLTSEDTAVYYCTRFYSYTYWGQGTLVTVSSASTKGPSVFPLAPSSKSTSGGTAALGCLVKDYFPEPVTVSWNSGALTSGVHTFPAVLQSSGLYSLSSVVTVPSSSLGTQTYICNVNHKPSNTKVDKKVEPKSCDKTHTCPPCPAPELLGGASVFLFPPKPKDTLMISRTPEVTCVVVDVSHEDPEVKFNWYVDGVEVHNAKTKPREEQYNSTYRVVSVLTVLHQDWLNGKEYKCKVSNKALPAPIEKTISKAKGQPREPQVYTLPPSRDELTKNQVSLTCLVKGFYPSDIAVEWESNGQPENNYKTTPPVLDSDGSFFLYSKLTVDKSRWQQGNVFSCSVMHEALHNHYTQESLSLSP
light: DIVMTQSPLSLPVTPGEPASISCQASESLVHSNRNTYLHWYLQKPGQSPQLLIYKVSNRFSGVPDRFSGSGSGTDFTLKISRVEAEDVGVYYCSQNTHVPPTFGQGTKVEIE
notes: copies: 2 + 2
- relative binding activity (human FcγRIIb): 26 % of GpH7-B3/GpL16-k0
- relative binding activity (human FcγRIIIa(F)): 5 % of GpH7-B3/GpL16-k0
- relative binding activity (human FcγRIIa(R)): 38 % of GpH7-B3/GpL16-k0
- relative binding activity (human FcγRIa): 95 % of GpH7-B3/GpL16-k0
- relative binding activity (human FcγRIIa(H)): 15 % of GpH7-B3/GpL16-k0

B7: GpH7-B3 variant P238G/GpL16-k0 (antibody, human IgG1)
heavy: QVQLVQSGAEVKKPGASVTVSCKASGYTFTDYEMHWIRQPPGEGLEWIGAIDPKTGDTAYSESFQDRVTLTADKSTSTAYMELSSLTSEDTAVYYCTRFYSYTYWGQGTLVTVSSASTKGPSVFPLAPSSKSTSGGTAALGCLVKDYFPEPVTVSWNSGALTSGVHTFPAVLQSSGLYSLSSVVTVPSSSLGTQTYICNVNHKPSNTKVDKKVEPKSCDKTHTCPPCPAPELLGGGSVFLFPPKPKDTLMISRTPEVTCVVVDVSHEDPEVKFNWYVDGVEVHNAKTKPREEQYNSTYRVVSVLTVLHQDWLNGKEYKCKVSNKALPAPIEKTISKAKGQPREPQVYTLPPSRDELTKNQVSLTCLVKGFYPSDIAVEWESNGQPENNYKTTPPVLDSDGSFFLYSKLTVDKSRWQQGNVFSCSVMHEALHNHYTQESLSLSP
light: DIVMTQSPLSLPVTPGEPASISCQASESLVHSNRNTYLHWYLQKPGQSPQLLIYKVSNRFSGVPDRFSGSGSGTDFTLKISRVEAEDVGVYYCSQNTHVPPTFGQGTKVEIE
notes: copies: 2 + 2
- relative binding activity (human FcγRIIb): 27 % of GpH7-B3/GpL16-k0
- relative binding activity (human FcγRIIIa(F)): 0 % of GpH7-B3/GpL16-k0
- relative binding activity (human FcγRIIa(R)): 4 % of GpH7-B3/GpL16-k0
- relative binding activity (human FcγRIa): 65 % of GpH7-B3/GpL16-k0
- relative binding activity (human FcγRIIa(H)): 1 % of GpH7-B3/GpL16-k0

B8: GpH7-B3 variant P238H/GpL16-k0 (antibody, human IgG1)
heavy: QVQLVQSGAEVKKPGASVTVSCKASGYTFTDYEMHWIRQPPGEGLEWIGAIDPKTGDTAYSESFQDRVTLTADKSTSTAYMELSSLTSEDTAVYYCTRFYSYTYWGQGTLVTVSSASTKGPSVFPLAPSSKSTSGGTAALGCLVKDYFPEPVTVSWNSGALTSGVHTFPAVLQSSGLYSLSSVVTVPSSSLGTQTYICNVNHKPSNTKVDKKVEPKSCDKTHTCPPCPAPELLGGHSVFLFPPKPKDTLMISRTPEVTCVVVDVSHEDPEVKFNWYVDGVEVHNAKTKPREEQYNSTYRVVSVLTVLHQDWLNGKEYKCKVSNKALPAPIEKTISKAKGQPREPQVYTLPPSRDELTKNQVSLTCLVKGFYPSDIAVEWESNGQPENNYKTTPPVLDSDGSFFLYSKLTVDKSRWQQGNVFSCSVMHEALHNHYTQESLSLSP
light: DIVMTQSPLSLPVTPGEPASISCQASESLVHSNRNTYLHWYLQKPGQSPQLLIYKVSNRFSGVPDRFSGSGSGTDFTLKISRVEAEDVGVYYCSQNTHVPPTFGQGTKVEIE
notes: copies: 2 + 2
- relative binding activity (human FcγRIIb): 19 % of GpH7-B3/GpL16-k0
- relative binding activity (human FcγRIIIa(F)): -1 % of GpH7-B3/GpL16-k0
- relative binding activity (human FcγRIIa(R)): 25 % of GpH7-B3/GpL16-k0
- relative binding activity (human FcγRIa): 80 % of GpH7-B3/GpL16-k0
- relative binding activity (human FcγRIIa(H)): 3 % of GpH7-B3/GpL16-k0

B9: GpH7-B3 variant P238I/GpL16-k0 (antibody, human IgG1)
heavy: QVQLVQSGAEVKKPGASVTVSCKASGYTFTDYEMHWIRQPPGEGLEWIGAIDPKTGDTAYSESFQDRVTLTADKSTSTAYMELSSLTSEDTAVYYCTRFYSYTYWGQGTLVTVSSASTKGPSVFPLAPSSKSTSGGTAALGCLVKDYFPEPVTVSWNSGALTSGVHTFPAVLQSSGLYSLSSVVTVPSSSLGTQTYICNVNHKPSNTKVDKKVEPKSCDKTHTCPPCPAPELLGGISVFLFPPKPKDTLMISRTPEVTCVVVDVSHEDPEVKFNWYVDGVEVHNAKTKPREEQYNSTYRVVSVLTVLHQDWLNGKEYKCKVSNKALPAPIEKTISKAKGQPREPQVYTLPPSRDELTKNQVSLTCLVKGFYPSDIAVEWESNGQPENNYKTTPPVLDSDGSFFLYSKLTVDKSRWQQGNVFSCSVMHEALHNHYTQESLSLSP
light: DIVMTQSPLSLPVTPGEPASISCQASESLVHSNRNTYLHWYLQKPGQSPQLLIYKVSNRFSGVPDRFSGSGSGTDFTLKISRVEAEDVGVYYCSQNTHVPPTFGQGTKVEIE
notes: copies: 2 + 2
- relative binding activity (human FcγRIIb): 31 % of GpH7-B3/GpL16-k0
- relative binding activity (human FcγRIIIa(F)): 3 % of GpH7-B3/GpL16-k0
- relative binding activity (human FcγRIIa(R)): 43 % of GpH7-B3/GpL16-k0
- relative binding activity (human FcγRIa): 99 % of GpH7-B3/GpL16-k0
- relative binding activity (human FcγRIIa(H)): 19 % of GpH7-B3/GpL16-k0

B10: GpH7-B3 variant P238K/GpL16-k0 (antibody, human IgG1)
heavy: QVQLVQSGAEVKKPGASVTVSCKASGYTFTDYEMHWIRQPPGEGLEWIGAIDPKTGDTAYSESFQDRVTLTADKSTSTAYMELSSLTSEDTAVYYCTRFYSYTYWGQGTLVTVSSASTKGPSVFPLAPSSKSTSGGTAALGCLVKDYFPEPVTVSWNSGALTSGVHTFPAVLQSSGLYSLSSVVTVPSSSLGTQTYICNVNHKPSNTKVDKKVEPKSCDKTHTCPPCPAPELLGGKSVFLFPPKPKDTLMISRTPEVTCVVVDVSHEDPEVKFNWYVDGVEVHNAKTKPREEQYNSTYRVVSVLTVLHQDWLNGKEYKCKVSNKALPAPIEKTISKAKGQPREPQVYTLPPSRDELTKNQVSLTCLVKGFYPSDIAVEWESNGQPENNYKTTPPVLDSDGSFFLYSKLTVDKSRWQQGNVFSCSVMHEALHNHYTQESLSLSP
light: DIVMTQSPLSLPVTPGEPASISCQASESLVHSNRNTYLHWYLQKPGQSPQLLIYKVSNRFSGVPDRFSGSGSGTDFTLKISRVEAEDVGVYYCSQNTHVPPTFGQGTKVEIE
notes: copies: 2 + 2
- relative binding activity (human FcγRIIb): -2 % of GpH7-B3/GpL16-k0
- relative binding activity (human FcγRIIIa(F)): -1 % of GpH7-B3/GpL16-k0
- relative binding activity (human FcγRIIa(R)): -2 % of GpH7-B3/GpL16-k0
- relative binding activity (human FcγRIa): 8 % of GpH7-B3/GpL16-k0
- relative binding activity (human FcγRIIa(H)): -1 % of GpH7-B3/GpL16-k0

B11: GpH7-B3 variant P238N/GpL16-k0 (antibody, human IgG1)
heavy: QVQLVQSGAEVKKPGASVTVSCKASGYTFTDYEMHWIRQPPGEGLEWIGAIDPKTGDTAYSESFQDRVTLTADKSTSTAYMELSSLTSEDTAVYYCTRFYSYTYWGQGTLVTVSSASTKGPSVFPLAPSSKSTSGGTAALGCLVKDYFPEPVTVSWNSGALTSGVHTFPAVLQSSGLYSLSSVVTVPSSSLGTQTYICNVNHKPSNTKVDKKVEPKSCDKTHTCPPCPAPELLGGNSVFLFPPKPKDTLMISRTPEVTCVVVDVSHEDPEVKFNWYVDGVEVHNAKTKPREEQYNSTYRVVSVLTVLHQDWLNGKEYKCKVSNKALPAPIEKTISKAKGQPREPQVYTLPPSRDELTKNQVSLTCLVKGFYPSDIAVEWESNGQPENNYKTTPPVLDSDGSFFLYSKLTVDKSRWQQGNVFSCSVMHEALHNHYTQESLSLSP
light: DIVMTQSPLSLPVTPGEPASISCQASESLVHSNRNTYLHWYLQKPGQSPQLLIYKVSNRFSGVPDRFSGSGSGTDFTLKISRVEAEDVGVYYCSQNTHVPPTFGQGTKVEIE
notes: copies: 2 + 2
- relative binding activity (human FcγRIIb): 27 % of GpH7-B3/GpL16-k0
- relative binding activity (human FcγRIIIa(F)): -1 % of GpH7-B3/GpL16-k0
- relative binding activity (human FcγRIIa(R)): 5 % of GpH7-B3/GpL16-k0
- relative binding activity (human FcγRIa): 64 % of GpH7-B3/GpL16-k0
- relative binding activity (human FcγRIIa(H)): 1 % of GpH7-B3/GpL16-k0

Source: patent US20200199241A1 (Chugai, published 2020)
